Data: patent publication US20110190477A1 (G2 INFLAMMATION, published 2011)
Several values for one entry are separate records, joined by “and”; a condition that tells them apart may be missing. Equal entries are not always repeated.

How the values were obtained:
human C5a receptor [1] = target: T1, human C5a receptor (human, UniProt P21730 1-350); assay: cell-based or functional assay
T1 chain: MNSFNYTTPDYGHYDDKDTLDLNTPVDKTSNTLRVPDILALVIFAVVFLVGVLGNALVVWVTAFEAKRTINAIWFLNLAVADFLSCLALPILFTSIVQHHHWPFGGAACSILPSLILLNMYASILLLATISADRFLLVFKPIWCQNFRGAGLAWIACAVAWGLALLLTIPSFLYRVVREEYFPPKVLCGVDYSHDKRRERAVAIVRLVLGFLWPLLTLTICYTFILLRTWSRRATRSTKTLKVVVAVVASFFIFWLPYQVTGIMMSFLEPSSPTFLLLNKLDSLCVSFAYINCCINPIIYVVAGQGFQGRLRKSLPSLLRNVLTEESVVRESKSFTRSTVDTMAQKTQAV

human C5a receptor [2] = target: T1, human C5a receptor; assay: cell-based or functional assay
human C5a receptor [3] = target: T1, human C5a receptor; assay: 125I-C5a displacement, L1.2/hC5aR transfectants
Description: (§1) The ability of humanized Abs to inhibit ¹²⁵I-labelled C5a binding to L1.2 cells transfected with hC5aR gene or human neutrophils was tested as described below. Recombinant human C5a was obtained from Sigma Chemical Co. (St. Louis, Mo.). ¹²⁵I-Bolton-Hunter-labelled complement C5a was purchased from NEN-Dupont (Boston, Mass.), with a specific activity of 2200 Ci/mM. Briefly, L1.2/hC5aR stable transfectants were grown for several days prior to an experiment then treated overnight with 5 mM butyric acid to stimulate hC5aR expression prior to the binding assay. Human neutrophils were purified from venous blood collected from healthy volunteers. Neutrophils were separated from other leukocytes by percoll density centrifugation followed by a red blood cell lysis step. Both cell types were washed once in PBS and resuspended in binding buffer (50 mM Hepes, pH 7.5, 1 mM CaCl₂, 5 mM MgCl₂, 0.5% BSA) at a concentration of 1×10⁷/ml. Aliquots of 40 μl (4×10⁵ cells) were dispensed into 96 well microtitre plates, followed by the addition of cold competitor (antibody or human C5a). Cells and cold competitor were incubated for 15 min at room temperature before-radiolabelled C5a was added to a final concentration of 0.4 nM. The final reaction volume was 120 μl. After 60 min incubation at room temperature, the cells were washed three times with 150 μl of binding buffer containing 0.15 M NaCl. Cell pellets were then counted on a TopCount Scintillation Counter (Packard). Samples were assayed in triplicate at each of 6-8 concentrations. Each antibody was tested in at least 3 separate assays. The number of counts in each sample was expressed as a percentage of the maximum ¹²⁵I-C5a binding observed in wells with no added cold competitor after subtraction of background.
(§2) Results of this analysis (the displacement curves) for each of the humanized antibodies compared to the mouse antibody 7F3 in human neutrophils and L1.2/hC5aR transfectants are given in FIGS. 11 and 12 respectively. […] These values were obtained using Graphpad Prism software fitting the data to the non-linear equation for one site competition.

human C5a receptor [4] = target: T1, human C5a receptor; assay: 125I-C5a displacement, human neutrophils
Description: as §1, §2

human C5a receptor [5] = target: T1, human C5a receptor; assay: saturation binding to human neutrophils at 4 C, flow cytometry
Description: Human neutrophils, isolated as described above, were resuspended in dPBS and 1×10⁵ cells (in 25 μl) were dispensed into wells of a 96-well plate. An equal volume (25 μl) of 2× antibody (diluted in PBS) was added to each well. The final antibody concentration using 2-fold serial dilution ranged from 40 to 0 ug/ml (using unlabelled hAb-Q, hAb-J and 7F3). Cells and antibody were incubated for 20 min times at 4° C. After incubation, 100 μl PBS+1% BCS was added to each well and the plate centrifuged at 2,000 rpm for 3 min. […] The cells were washed once as above and resuspended in PBS+1% FCS for analysis by flow cytometry. FSC v SSC scatter was used to identify neutrophils, with the Median Fluorescence Intensity (MFI) determined for each sample. EC50 values were determined by fitting data (MFI—background vs log₁₀[antibody concentration]) to the sigmoidal dose-response (variable slope) i.e. 4-parameter logistic equation using GraphPad Prism (v4.0) software. Bₘₐₓ and KD were determined by fitting data to the one-site binding hyperbola equation.

human C5a receptor [6] = target: T1, human C5a receptor; assay: 125I-C5a displacement by cold C5a, human neutrophils

Binder	blocking of human neutrophil migration towards C5a at 5 µg/ml antibody (human C5a receptor [1])	Ab conc. effective at blocking C5a-induced Ca2+-flux (human neutrophils, 1 nM C5a) (human C5a receptor [2])	EC50 (human C5a receptor [3])	EC50 (human C5a receptor [4])	other results
humanized anti-C5aR antibody hAb-G (antibody, human IgG4 S228P, kappa, also called antibody G) light: DVVMTQSPLSLPVTLGEPASISCRSSQSLVHSNGNTYLHWYLQKPGQSPQLLIYKVSNRFSGVPDRFSGSGSGTDFTLKISRVEAEDVGVYFCSQSTLVPLTFGQGTKLEIKTVAAPSVFIFPPSDEQLKSGTASVVCLLNNFYPREAKVQWKVDNALQSGNSQESVTEQDSKDSTYSLSSTLTLSKADYEKHKVYACEVTHQGLSSPVTKSFNRGEC heavy: not shown	84%	30 µg/mL	1.53 nM	3.52 nM	
humanized anti-C5aR antibody hAb-O (antibody, human IgG1, kappa, IgG1; also called antibody O) light: DVVMTQSPLSLPVTLGQPASISCRSSQSLVHSNGNTYLHWFQQRPGQSPRLLIYKVSNRFSGVPDRFSGSGSGTDFTLKISRVEAEDVGVYYCSQSTLVPLTFGGGTKLEIKTVAAPSVFIFPPSDEQLKSGTASVVCLLNNFYPREAKVQWKVDNALQSGNSQESVTEQDSKDSTYSLSSTLTLSKADYEKHKVYACEVTHQGLSSPVTKSFNRGEC heavy: not shown		10 µg/mL	0.68 nM	0.48 nM	
humanized anti-C5aR antibody hAb-N (antibody, human IgG1, kappa, IgG1; also called antibody N) light: DVVMTQSPLSLPVTLGEPASISCRSSQSLVHSNGNTYLHWYLQKPGQSPQLLIYKVSNRFSGVPDRFSGSGSGTDFTLKISRVEAEDVGVYFCSQSTLVPLTFGQGTKLEIKTVAAPSVFIFPPSDEQLKSGTASVVCLLNNFYPREAKVQWKVDNALQSGNSQESVTEQDSKDSTYSLSSTLTLSKADYEKHKVYACEVTHQGLSSPVTKSFNRGEC heavy: not shown			1.03 nM	0.65 nM	Ab conc. tested but not effective at blocking Ca2+-flux (human neutrophils, 1 nM C5a) (human C5a receptor [2]): 0.01 µg/mL; EC50 (human C5a receptor [5]): 20 nM to 25 nM (2×) and ~3 µg/mL; Kd (human C5a receptor [5]): 20 nM to 25 nM (2×) and ~3 µg/mL
humanized anti-C5aR antibody hAb-A (antibody, human IgG4, kappa, V domains shown, also called antibody A) VH: QVQLVQSGAEVKKPGASVKISCKASGYAFSNSWMNWVRQAPGKGLEWMGRIYPGDGDTKYNGKFKGRVTITADESTSTAYMELSSLRSEDSAVYFCARFLLISTVTAVDYWGQGTTVTVSS VL: DVVMTQSPLSLPVTLGEPASISCRSSQSLVHSNGNTYLHWYLQKPGQSPQLLIYKVSNRFSGVPDRFSGSGSGTDFTLKISRVEAEDVGVYFCSQSTLVPLTFGQGTKLEIKT			2.78 nM		
humanized anti-C5aR antibody hAb-K (antibody, human IgG4 S228P, kappa, V domains shown) VH: QVQLVQSGAEVKKPGASVKVSCKASGYAFSNSWMNWVRQAPGQGLEWMGRIYPGDGDTKYNGKFKGRVTMTADTSTSTVYMELSSLRSEDTAVYYCARFLLISTVTAVDYWGQGTLVTVSS VL: DVVMTQTPLSLPVTLGQPASISCRSSQSLVHSNGNTYLHWCLQKPGQSPQLLIYKVSNRFSGVPDRFSGSGSGTDFTLKISRVEAEDVGVYYCSQSTLVPLTFGQGTKLEIKT	55%				
humanized anti-C5aR antibody hAb-C (antibody, human IgG4, kappa, also called antibody C) light: DVVMTQSPLSLPVTLGQPASISCRSSQSLVHSNGNTYLHWFQQRPGQSPRLLIYKVSNRFSGVPDRFSGSGSGTDFTLKISRVEAEDVGVYYCSQSTLVPLTFGGGTKLEIKTVAAPSVFIFPPSDEQLKSGTASVVCLLNNFYPREAKVQWKVDNALQSGNSQESVTEQDSKDSTYSLSSTLTLSKADYEKHKVYACEVTHQGLSSPVTKSFNRGEC heavy: not shown	75%		0.9 nM	2.48 nM	
humanized anti-C5aR antibody hAb-F (antibody, human IgG4 S228P, kappa, also called antibody F) light: DVVMTQSPLSLPVTLGQPASISCRSSQSLVHSNGNTYLHWFQQRPGQSPRLLIYKVSNRFSGVPDRFSGSGSGTDFTLKISRVEAEDVGVYYCSQSTLVPLTFGGGTKLEIKTVAAPSVFIFPPSDEQLKSGTASVVCLLNNFYPREAKVQWKVDNALQSGNSQESVTEQDSKDSTYSLSSTLTLSKADYEKHKVYACEVTHQGLSSPVTKSFNRGEC heavy: not shown			1.26 nM	2.55 nM	Ab conc. tested but not effective at blocking Ca2+-flux (human neutrophils, 1 nM C5a) (human C5a receptor [2]): 10 µg/mL
humanized anti-C5aR antibody hAb-M (antibody, human IgG4, kappa, also called antibody M) light: DVVMTQSPLSLPVTLGEPASISCRSSQSLVHSNGNTYLHWYLQKPGQSPQLLIYKVSNRFSGVPDRFSGSGSGTDFTLKISRVEAEDVGVYFCSQSTLVPLTFGQGTKLEIKTVAAPSVFIFPPSDEQLKSGTASVVCLLNNFYPREAKVQWKVDNALQSGNSQESVTEQDSKDSTYSLSSTLTLSKADYEKHKVYACEVTHQGLSSPVTKSFNRGEC heavy: not shown		30 µg/mL	0.95 nM	4.05 nM	
humanized anti-C5aR antibody hAb-S (antibody, human IgG4 S228P, kappa, also called antibody S) light: DVVMTQSPLSLPVTLGEPASISCRSSQSLVHSNGNTYLHWYLQKPGQSPQLLIYKVSNRFSGVPDRFSGSGSGTDFTLKISRVEAEDVGVYFCSQSTLVPLTFGQGTKLEIKRTVAAPSVFIFPPSDEQLKSGTASVVCLLNNFYPREAKVQWKVDNALQSGNSQESVTEQDSKDSTYSLSSTLTLSKADYEKHKVYACEVTHQGLSSPVTKSFNRGEC heavy: not shown				2.69 nM	
human C5a (ligand, UniProt P01031 678-751, looked up, tracer form: 125I-Bolton-Hunter label, C5a is a fragment of it; also called hC5a; recombinant human C5a) TLQKKIEEIAAKYKHSVVKKCCYDGACVNNDETCEQRAARISLGPRCIKAFTECCVVASQLRANISHKDMQLGR					EC50 (human C5a receptor [6]): 0.5 nM
